Results: the nanobody polyreactivity screen of Harvey et al. (2022)

Test: yeast display, Sf9 membrane polyspecificity reagent, FACS + sequencing; frameworks hold sequencing errors
How it was run: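 In a synthetic yeast display library (Saccharomyces cerevisiae BJ5465), nanobody expression was induced with galactose for 36–48 hours. FACS gates were set low and high (top ~1%) using anti-HA fluorescence for expression and streptavidin fluorescence for binding of the Sf9 membrane reagent. Each polyreactivity label is drawn from the gate of origin.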

Sequence	polyreactivity (PSR sort gate)
QVQLVESGGGLVQAGGSLRLSCAASGLIFKNNAMGWYRQAPGKERELVAAIDSIGGSTYYADSVKGRFTISRDNAKNTVYLQMNSLKPEDTAVYYCATDYYFYPHSQYDYWGQGTQVTVSS	low polyreactivity
QVQLVESGGGLVQAGGSHRLSCAASGLTFTDNAMGRYRQAPGKERELVAAMSRCGGTTYYAASVKGRFTISRDNAKNTVYLQMNSLKPEDTAVYYCNADTYRRLYGNYDYWGQGTQLTVSS	high polyreactivity
QVQLVESGGGLVQAGGSLRLSCAPSGLILDGNVMGWYRQAPGTERELVAAINTSGGSTYYADSVKGRFTISRDNAKNTVYLQMNSLKPEDTAVYYCAARYPTDYDYWGQGTQVTVSS	low polyreactivity
QVQLVESGGGLVQAGGSLRLSCAASGRTFYGYVMGWYRQAPGKERELVAAISSGGNTKYADSVKGRFTISRDNAKNTVYLQMNSLKPEDTAVYYCAAGSSVTPYRYYYWGQGTQVTVSS	high polyreactivity
QVQLVESGGGLVQAGGSLRLSCAASGTIYYNTMGWYRQAPGKERELVASISRTGSTKYADSVKGRFTISRDNAKNTVYLQMNSLKPEDTAVYYCAADYLAFREGAVWLYDYWGQGTQVTVSS	high polyreactivity
QVQLVESGGGLVQAGGSLRLSCAASGYTFRSNTMGWYRQAPGKERELVASINQSGGRTYYADSVKGRFTISRDNAKNTVYFQMNSLKPEDTAVYYCATRGYNYYAHNYWGQGTQVTVSS	high polyreactivity
QVQLVESGGGLVQAGGSLRLSCAASGSTFSFYDMGWSRQAPGKERELVAAITGSGGTTYYADSVQGRFTISRDNAKNTVYFQMNSLKPEDTAVYFCAADSLESYPDYEYDFWGQGTQVTVSS	low polyreactivity
QVKLVDSGVGLVQAGVSLRLSCAASGSIFGTYAMGWYRQAPGKERELVAAISYRGTSTYYADSVKGRFTISRDNAKNTVYLQMNSLKPEDTAVYYCAARHGYTYRSGYYYWGQGTQVTVSS	high polyreactivity
QVQLVESGGGLVQAGGSLRLSCAASDTPSSSMLMGWYRQAPGKERQLVAAISGSDGTTYYADSVKGRFTISRDNAKNTVYLQMNSLKPEDTAVYYCAADDRVDSGYIKDDYWGQGTQVTVSS	low polyreactivity
QVQLVESGGGLVQAGGSLRLSCAASGITFILYDMGWYRQAPGKERELVAGITSGDGDSTYYADSVKGRFTISRDNAKNTVYLQMNSLKPEDTAVYYCAADFTVGYYREYYYWGQGTQVTVSS	low polyreactivity
QVQLVESGGGLVQAGGSLRLSCAASGFTFAVYDMGWYRQAPGKERELVASITGDSTNYADSVKGRFTISRDNAKNTVYLQMNSLKPEDTAVYYCAAEYVPYYEYESWGQGTQVTVSS	low polyreactivity
QVQLVESGGGLVQAGGSLRLSCAASGIIFSYYAMGWYRQAPGKERELVAAITSGGGSTYYADSVKGRFTISRDNAKNTVYLQMNSLKPEDTAVYYCAADYNRELGRKFEYWGQGSQVTVSS	high polyreactivity
QVQLVESGGGLVQAGGSLRLSCAASGYIFFGNAMGWYRQAPGKERELVAAIRWRGTSTYYADSVKGRFTISRDNAKNTVYLQMNSLKPEDTAVYYCARLRTVGGYSKYDYWGQGSQVTVSS	low polyreactivity
QVQLVESGGGKVQAGGSLRLSCPPSGRTFYYYAMGWYRQAPGKVRELVAVIRSSGDSTYYADSVKGRFTISRDNEKNTVYLQMKSLKPDDTAVDYCAADAPSRSYSWHPRYYYWGQGSQVTVSS	low polyreactivity
QVQLVESGGGLVQAGGSLRLSCAASGFTFPSYTMGWYRQAPGKERELVAAISRSDGTTYYADSVKGRFTISRDNAKNTVYLQMNSLKPEDTAVYYCNKAYKRYGYHYDYWGQGTQVTVSS	high polyreactivity
QVQLVESGGGLVQAGGSLRLSCAASGSTFVVNAMGWYRQAPGKERELVAAITQSGGSTFYADSVKGRFTISRDNAKNTVYLQMNSLKPEDTAVYYRGQGTQVTVSS	low polyreactivity
QVQLVESGGGLVQAGGSLRLSCAASGRTFYRYGMGWYRQAPGKEREFVAAITRSGDSTYADSVKGRFTISRDNAKNTVYLQMNSLKPEDTAVYYCAKVFLRQYAYRYYYWGQGTQVTVSS	high polyreactivity
QVQLVESGGGLVQAGGSLRLSCAASGRTIPNVMGWYRQAPGKERELVAAISSSVGSTSYADSVKGRFTISRDNAKNTVYLQMNSLKPEDTAVYYCAARYYYRDWVGIISTYYYWGQGTQVTVSS	high polyreactivity
QVQLEESGGGLVQAGGSLRLSCAASGYIFYEYAMGWYRQAPGKERELVAAISRRGGRTYYADSVKGRFTISRDNAKNTVYLQMHSLKPEDTAVYYCAASVRFGDYEYWGQGTQVTVSS	high polyreactivity
QVQLVESGGGLVQAGGSLRLSCAASGLIFDCYARGWYRQAPGKERELVAAITYTGGSTYYADSVKGRFTISRDNAKNTDYIQMNSLKPEDTAVYYCAARRQRDRYGYWGQGTQVTVSS	high polyreactivity
QVQLVESGGGLVQAGGSLRLSCAASGRIFHVNAMGWYRQAPGKEMDLVAAISTSGGRTYYADSVKGRFTISRDNAKNTVYLQMNSLKPEDTAVYYCAAVSRAPGLRYDYWGQGTQVTVSS	high polyreactivity
QVQLVESGGGLVQAGGSLRLSCAASGRTFRSYAMGWYRQAPGKERELVAAISRGGRTNYADSVKGRFTISRDNAKNTVYLQMNSLKPEDTAVYYCAAAQFRSYWAFDYWGQGTQVTVSS	high polyreactivity

Sequence	polyreactivity (PSR sort gate)
QVQLVESGGGLVQAGGSLRLSCAASGSIFTRYVMGWYRQAPGKERELVAAISGRGSSTYYADSVKGRFTISRDNAKNTVYLQMNSLKPEDTAVYYCAADRVRRPSPGGMDYWGQGTQVTVSS	high polyreactivity
QVQLVESGGALVQARGSLRLSSAASGSIFPFYAMPSYRQAPGKERELVAAISDRGGSTYYADSVKGRFTISRDNAKNTVYLQMNSLKPEDTAVYYCAVDGYGWGSSSSWFRSLYDYWGQGTQVTVSS	low polyreactivity
QVQLVESGGGLVQAGGSLRLSCAASGSTFATYTMGWYRQAPGTERELVAAITGSVGSTYYADSVMGRFTISRDNAKNTVYVQMNSRKPQDTAVFYCAARGYRTRRGFTYQYRYEYWGQGTQVTVSS	high polyreactivity
QVQLVESVGGLVQAGGSLRLSCAASGRTIVTNAIGWYRQAPGKERELVAAISRRTGSTYYADSVKGRFTISRDNAKNTVYLQMNSLKPEDTAVYYCAAKGYGSAPTYRHNYWGQGTQVTVSS	high polyreactivity
QVQLVESGGGLDQAGGSLRLSCAASGFIINRNAMGWYRQAPGKERELVADITGGSTYYADSVKGRFTISRDNAKNTVYLQMNSLKPEDNAVYYCAADVLRITTLLFRGTGFDSWGHGTQVTVSS	low polyreactivity
QVQLVESGGGLVQAGGSLRLSCAASGRIFVHNAMGWYRQAPGKERELVAAIRSSGGRTYYADSVKGRFTISRDNAKKTVYLQMNSLKPEDTAVYYCAARFDTTRVGYWGQGTQVTVSS	high polyreactivity
QFQLVESGGGLVQAGGSLRLSCAASGRIFRVNAKGWYRPAPGKERELVAGITQGDGSTYYADSVKGRFTISRDNAKNTVYLQMNSLKPEDTAVYYCAASTGPDRQFDSWGQGTQVTVSS	low polyreactivity
QVQLVESGGGLVQAGGSLRLSCAASGFTITRYAMGWYRQAPGKERELVARITGRGGGTFYADSVKGRFTISRDNAKNTVYLQMNSLKPEDTAVYYCNTDYGSSYNYWGQGTQVTVSS	high polyreactivity
QFQLVESGRGLVQAVGSHRLRCAASGSILLKYAMGWYRQATGKEMELVAAITYRGASTHYADSVKGRFTISRDNAKNTVYLQMNSLKPEDTAVYYCAARGWVYYASEMDYWGQGTQVTVSS	low polyreactivity
QVQLEESGGGLVQAGGCLRLSCAASGSIFEWYAMGWYRQAPGKERELVADISSVGSTYYADSVKGRFTISRDNAKNTVYLQMNSLKPEDTAVYYCNTSYIIWYDSWGQGTQVTVSS	low polyreactivity
QVQLVESGGGLVQAGGSLRLSCAASGSIFGAYAMGWYRQAPGKETELVASITGNGGSTYYADSVKGRFTISRDNAKNTVYLQMNSLKPEDTAVYYCAADDYSTRYRWFYYGSPYYYWGQGTQVTVSS	high polyreactivity
QVQLVESGGGLVQAGGSLRLSCAASGSTFGVYAMGWYRQAPGKERELVAAITKRGGDTYYADSVKGRFTISRDNAKNTVYLQMNSLKPEDTAVYYCAAGLYVSYYWYDYWGQGTQVTVSS	high polyreactivity
QVQLVESGGGLVQAGGSLRLSCAASGTMGSYRQAPGKERELVAAISQSGGSTYYADSVKGRFTISRDNAKNTVYLQMNSLKPEDTAVYYCAVDPRYGHPRRDYWGQGTQVTVSS	low polyreactivity
QVQLVESGGGLVQAGGSLRLSCAASGLTFWANTMGWYRQAPGKERELVAAITWSGGSTYYADSVKGRFTISRDNAKNTFYLQMNSLKPEDNAVYYCAAEEFFSAGYSYYYWGQGTQVTVSS	low polyreactivity
QVQLVESGGGLVQAGGRLRLTCAASGSTFGDYAMGWYRQAPGKERELVAAITYSGGRTYYADSVKGRFTISRDNAKNTGDLQMNRLKPEDTAVYYCAARVRYPSRRGNYDYWGEGTQVTVSS	high polyreactivity
QVQLVESVGGLVQARGSLRLICAASVRIIRGNAMGWYRQAPGKERELVAAISRRSGSTYYADSVKGRFTISRDNAKNTVYLQMISLKPEDTAVYYCAATCSLGDFRYDYWGQGTQVSVSS	high polyreactivity
QVQLVESGGGLVQAGGSLSLSCAASGSTFKHYAMGWYRKAPGKERELVAAISSRGGSTHYADSVKGRFTISRDNAKNTVYLQMNSLKPEDTAVYYCARDTDPQSSRSSDYDYWGQGTQVTVSS	low polyreactivity
QVQLVESGVGLVQAGGSLRLIWAASGRTFYRNVMGWYRQAPGKERELVAAISWSGGRTYYADSVKGRFTISRDNAKNTVYLQMNSLKPEDTAVYYCAARYRTLDGEVDYWGQGTQVTVSS	high polyreactivity
QVQLVESGGCLVQAGGSLRLSCAASGFTFRRYTMGWSRQAPGKDRELVAAISGRGGRTYYADSVKGRFTISRDNAKNTVYLQMNSLQPQDTAVYYSAADTPYWQSSKYDYWGQGTQVTVSS	high polyreactivity
QVQLVESGGGLVQAGGSLRLSCAASGITFGVNTMGWYRQAPGKERELVAAITWRGGSTYYADSVKGRFTISRDNAQNTVYLQMNSLIPEDTAVYYCAAQPIWPGGQELDYWGQGTQVTVSS	low polyreactivity
QVQLVDSGGGLVQAGGSLRLSCAASGRIFYQNAMGWYRQAPGKETELVADNSSGGSTYYADSVKGRFTISRDNAKNTVYLQMNSLKPEDNAVYYCNTPSGPGTVGSYRRKWYGYWGQGTQLTVSS	low polyreactivity
